# According to publication PMC8309005, “Novel Non-Congeneric Derivatives of the Choline Kinase Alpha Inhibitor ICL-CCIC-0019” (Pharmaceutics, 2021):
# Tests used:
# [1] = tested on: C4-2B prostate cancer cells; test: Cellular uptake and metabolism study in C4-2B with or without serum (HPLC); conditions: 50 μM, 4 h
# Experimental: Cell lysate sample preparation: C4-2B prostate cancer cells were seeded into cell culture dishes (150 × 25 mm) at a density of 7 × 10^6 per dish. The cells were allowed to settle and grow for another 48 h. The cells were treated with ICL-CCIC-0019, CK146, CK147 and CK148 (50 μM of 7 mL RPMI medium with or without 10% FCS) for 4 h in the incubator. After 4-h incubation, the aliquots of medium were collected (see the medium sample preparation section). Cells were scraped, washed with ice-cold PBS three times and collected by centrifugation (4 °C, 4000× g). The cell pellets were resuspended in 500 μL of chilled acetonitrile:PBS (50:50, v/v) for cell disruption and homogenization. The cell disruption was performed by a Precellys® 24 homogenizer (Bertin Technologies, Montigny-le-Bretonneux, France) at 4 °C. After acetonitrile evaporation at room temperature, 50 μL of cell lysis was taken for protein analysis. Another 100 μL of the supernatant obtained after centrifuge (4 °C, 15,000× g) was resuspended in 100 μL formic acid:water (0.2%, v/v). Next, 100 μL of the filtered solution was analyzed by HPLC system described in Supplementary HPLC method D. Three injections were performed for each sample. Intracellular drug was normalized to cellular protein of each plate using BCA assay. Medium sample preparation for HPLC analysis: 250-μL aliquots of medium (with or without 10% FCS) were transferred into 1.5-mL tube containing 250 μL acetonitrile. After a brief vortex, the tube was placed at 4 °C for 30 min for protein precipitation. One hundred microliters of the resulting supernatant from centrifuge (4 °C, 15,000× g) were resuspended in 100 μL formic acid: water (0.2%, v/v). One hundred microliters of the filtered sample were analyzed by HPLC system described in Supplementary HPLC method D. Three injections were performed for each sample.
# PI3K a = PI3K a (Homo sapiens, UniProt P42336); test: Lipid kinase screening (ADP-Glo), PI3K a; assay type: biochemical
# Experimental: (§1) The lipid kinase screening for ICL-CCIC-0019, CK14, CK145 (5), CK146 (4) and CK147 (8) (testing concentration for all compounds: 10 μM) was performed by MRC PPU International Centre for Kinase Profiling (Dundee, UK). The lipid kinase screening panel includes 15 human recombinant lipid kinases and the tests used Promega ADP Glo^TM High Throughput Assay kit (Promega, Southampton, UK). For each assay, reference compounds were used as quality control. Finally, mean percentage activity inhibited by compounds and standard deviation for all the repeats were calculated.
# PI3K b = PI3K b (Homo sapiens, UniProt P42338); test: Lipid kinase screening (ADP-Glo), PI3K b; assay type: biochemical
# Experimental: as §1
# PI3K g = PI3K g (Homo sapiens, UniProt P48736); test: Lipid kinase screening (ADP-Glo), PI3K g; assay type: biochemical
# Experimental: as §1
# PI3Ka E545K + p85 = PI3Ka E545K + p85 (Homo sapiens, UniProt P42336, E545K); test: Lipid kinase screening (ADP-Glo), PI3Ka E545K + p85; assay type: biochemical
# PI3Ka E545K + p85, sequence (P42336 whole entry E545K): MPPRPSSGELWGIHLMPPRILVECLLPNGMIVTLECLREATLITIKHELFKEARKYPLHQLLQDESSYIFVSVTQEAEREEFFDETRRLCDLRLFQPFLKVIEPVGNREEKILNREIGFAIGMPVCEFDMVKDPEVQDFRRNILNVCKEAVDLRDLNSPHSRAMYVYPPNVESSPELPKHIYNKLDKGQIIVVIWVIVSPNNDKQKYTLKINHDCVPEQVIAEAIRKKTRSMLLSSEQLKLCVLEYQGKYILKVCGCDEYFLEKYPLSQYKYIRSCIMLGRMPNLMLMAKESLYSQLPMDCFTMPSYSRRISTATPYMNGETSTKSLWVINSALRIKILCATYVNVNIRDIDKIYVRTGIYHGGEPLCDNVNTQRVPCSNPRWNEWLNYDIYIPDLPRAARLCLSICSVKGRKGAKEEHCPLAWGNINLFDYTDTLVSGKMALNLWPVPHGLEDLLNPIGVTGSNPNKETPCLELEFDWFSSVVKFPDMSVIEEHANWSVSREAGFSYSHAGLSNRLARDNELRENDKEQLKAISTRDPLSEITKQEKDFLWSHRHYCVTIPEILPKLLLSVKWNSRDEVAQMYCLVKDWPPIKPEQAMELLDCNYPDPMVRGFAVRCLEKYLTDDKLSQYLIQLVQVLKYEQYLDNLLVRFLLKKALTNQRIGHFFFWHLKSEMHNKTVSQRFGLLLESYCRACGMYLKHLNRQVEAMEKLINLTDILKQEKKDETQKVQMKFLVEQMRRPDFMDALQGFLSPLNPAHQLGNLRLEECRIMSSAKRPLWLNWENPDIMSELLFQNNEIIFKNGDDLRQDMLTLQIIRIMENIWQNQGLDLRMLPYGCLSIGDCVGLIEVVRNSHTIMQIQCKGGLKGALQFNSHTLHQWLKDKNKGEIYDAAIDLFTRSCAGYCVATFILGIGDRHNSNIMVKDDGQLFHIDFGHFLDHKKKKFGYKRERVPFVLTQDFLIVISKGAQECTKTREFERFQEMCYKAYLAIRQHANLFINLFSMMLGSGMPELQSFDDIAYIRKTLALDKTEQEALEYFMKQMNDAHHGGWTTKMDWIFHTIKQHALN
# PI3Ka E545K + p85, sequence (P27986 whole entry partner): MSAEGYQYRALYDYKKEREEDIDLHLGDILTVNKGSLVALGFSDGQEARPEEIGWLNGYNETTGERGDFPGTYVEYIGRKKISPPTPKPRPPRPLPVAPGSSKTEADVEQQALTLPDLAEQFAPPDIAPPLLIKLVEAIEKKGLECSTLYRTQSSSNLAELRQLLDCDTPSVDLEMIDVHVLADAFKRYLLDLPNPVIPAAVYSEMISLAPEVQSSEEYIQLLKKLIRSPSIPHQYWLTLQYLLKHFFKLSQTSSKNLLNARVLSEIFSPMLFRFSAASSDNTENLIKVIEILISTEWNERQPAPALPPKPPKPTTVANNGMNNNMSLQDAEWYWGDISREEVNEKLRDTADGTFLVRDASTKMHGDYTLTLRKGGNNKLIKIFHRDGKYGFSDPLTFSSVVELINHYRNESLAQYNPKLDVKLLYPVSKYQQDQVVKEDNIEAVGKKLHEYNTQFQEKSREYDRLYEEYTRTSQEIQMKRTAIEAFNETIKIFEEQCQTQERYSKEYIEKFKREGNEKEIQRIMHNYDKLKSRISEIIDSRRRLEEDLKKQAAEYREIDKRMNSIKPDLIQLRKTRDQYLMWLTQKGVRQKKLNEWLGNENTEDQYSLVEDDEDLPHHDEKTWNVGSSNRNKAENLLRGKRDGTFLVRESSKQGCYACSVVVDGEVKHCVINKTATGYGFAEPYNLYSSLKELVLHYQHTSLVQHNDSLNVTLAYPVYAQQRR
# Experimental: as §1
# PIP5K2A = biological target: T1, PIP5K2A (Homo sapiens, UniProt P48426); test: Lipid kinase screening (ADP-Glo), PIP5K2A; assay type: biochemical
# T1 sequence (P48426 1-406): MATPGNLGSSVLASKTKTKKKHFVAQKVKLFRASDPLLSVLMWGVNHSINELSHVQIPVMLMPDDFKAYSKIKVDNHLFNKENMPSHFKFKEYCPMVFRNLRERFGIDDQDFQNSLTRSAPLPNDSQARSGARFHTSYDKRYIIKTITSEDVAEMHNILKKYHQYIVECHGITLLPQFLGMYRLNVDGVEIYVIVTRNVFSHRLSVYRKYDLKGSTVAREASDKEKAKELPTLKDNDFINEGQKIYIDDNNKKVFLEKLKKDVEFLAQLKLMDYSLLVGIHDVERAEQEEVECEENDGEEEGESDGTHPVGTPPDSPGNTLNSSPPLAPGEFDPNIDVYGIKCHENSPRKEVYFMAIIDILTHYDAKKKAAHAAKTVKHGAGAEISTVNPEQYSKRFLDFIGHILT
# Experimental: as §1
# SPHK1 = SPHK1 (Homo sapiens, UniProt Q9NYA1); test: Lipid kinase screening (ADP-Glo), SPHK1; assay type: biochemical
# SPHK1, sequence (Q9NYA1 whole entry): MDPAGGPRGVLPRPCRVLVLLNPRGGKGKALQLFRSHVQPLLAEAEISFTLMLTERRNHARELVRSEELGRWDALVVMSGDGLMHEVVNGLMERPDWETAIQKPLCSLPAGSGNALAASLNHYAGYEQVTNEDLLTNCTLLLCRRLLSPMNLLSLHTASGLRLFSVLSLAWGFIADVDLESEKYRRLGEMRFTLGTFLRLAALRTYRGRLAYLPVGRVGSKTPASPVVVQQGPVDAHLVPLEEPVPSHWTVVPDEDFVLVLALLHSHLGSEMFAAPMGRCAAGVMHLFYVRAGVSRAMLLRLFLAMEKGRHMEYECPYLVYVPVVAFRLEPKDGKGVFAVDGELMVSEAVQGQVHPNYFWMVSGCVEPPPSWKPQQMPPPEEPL
# Experimental: as §1
# SPHK2 = biological target: T2, SPHK2 (Homo sapiens, UniProt Q9NRA0); test: Lipid kinase screening (ADP-Glo), SPHK2; assay type: biochemical
# T2 sequence (Q9NRA0 1-654): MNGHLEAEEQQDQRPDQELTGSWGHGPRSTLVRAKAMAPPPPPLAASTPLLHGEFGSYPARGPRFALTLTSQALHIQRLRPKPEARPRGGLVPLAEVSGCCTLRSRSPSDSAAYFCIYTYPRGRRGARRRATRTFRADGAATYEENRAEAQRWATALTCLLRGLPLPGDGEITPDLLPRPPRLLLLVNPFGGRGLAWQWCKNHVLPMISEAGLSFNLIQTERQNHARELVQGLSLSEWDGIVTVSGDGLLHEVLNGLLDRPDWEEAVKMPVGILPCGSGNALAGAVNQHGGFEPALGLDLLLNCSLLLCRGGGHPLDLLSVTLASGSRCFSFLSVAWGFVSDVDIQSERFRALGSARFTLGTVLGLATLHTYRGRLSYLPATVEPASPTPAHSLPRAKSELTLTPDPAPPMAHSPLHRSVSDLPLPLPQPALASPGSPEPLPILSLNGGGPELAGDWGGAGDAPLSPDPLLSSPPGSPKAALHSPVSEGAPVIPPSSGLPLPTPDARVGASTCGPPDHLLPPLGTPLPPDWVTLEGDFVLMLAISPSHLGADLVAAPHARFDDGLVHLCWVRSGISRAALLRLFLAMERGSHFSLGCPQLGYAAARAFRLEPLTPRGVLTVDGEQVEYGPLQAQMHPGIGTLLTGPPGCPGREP
# Experimental: as §1
# CHK a (CHKA) = CHK a (CHKA) (Homo sapiens, UniProt P35790); test: Lipid kinase screening (ADP-Glo), CHKA; assay type: biochemical
# CHK a (CHKA), sequence (P35790 whole entry): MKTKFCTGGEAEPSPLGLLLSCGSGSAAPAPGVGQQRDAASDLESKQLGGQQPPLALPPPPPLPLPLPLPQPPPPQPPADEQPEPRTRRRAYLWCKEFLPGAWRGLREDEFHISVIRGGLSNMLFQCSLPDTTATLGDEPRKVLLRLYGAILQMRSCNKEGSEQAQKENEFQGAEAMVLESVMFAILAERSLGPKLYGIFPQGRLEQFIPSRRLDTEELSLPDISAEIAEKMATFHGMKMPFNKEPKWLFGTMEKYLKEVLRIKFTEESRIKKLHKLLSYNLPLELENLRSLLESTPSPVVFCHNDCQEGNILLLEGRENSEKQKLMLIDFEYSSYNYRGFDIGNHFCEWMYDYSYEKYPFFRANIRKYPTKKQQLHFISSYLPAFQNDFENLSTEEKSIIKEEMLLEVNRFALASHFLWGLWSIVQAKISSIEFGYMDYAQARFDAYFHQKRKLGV
# Experimental: as §1
# DGK b = DGK b (Homo sapiens, UniProt Q9Y6T7); test: Lipid kinase screening (ADP-Glo), DGK b; assay type: biochemical
# Experimental: as §1
# [2] = biological target: phosphatidylinositol 4-kinase beta (PIK4CB) (Homo sapiens, UniProt Q9UBF8); test: Lipid kinase screening (ADP-Glo), PIK4CB; assay type: biochemical
# phosphatidylinositol 4-kinase beta (PIK4CB), sequence (Q9UBF8 whole entry): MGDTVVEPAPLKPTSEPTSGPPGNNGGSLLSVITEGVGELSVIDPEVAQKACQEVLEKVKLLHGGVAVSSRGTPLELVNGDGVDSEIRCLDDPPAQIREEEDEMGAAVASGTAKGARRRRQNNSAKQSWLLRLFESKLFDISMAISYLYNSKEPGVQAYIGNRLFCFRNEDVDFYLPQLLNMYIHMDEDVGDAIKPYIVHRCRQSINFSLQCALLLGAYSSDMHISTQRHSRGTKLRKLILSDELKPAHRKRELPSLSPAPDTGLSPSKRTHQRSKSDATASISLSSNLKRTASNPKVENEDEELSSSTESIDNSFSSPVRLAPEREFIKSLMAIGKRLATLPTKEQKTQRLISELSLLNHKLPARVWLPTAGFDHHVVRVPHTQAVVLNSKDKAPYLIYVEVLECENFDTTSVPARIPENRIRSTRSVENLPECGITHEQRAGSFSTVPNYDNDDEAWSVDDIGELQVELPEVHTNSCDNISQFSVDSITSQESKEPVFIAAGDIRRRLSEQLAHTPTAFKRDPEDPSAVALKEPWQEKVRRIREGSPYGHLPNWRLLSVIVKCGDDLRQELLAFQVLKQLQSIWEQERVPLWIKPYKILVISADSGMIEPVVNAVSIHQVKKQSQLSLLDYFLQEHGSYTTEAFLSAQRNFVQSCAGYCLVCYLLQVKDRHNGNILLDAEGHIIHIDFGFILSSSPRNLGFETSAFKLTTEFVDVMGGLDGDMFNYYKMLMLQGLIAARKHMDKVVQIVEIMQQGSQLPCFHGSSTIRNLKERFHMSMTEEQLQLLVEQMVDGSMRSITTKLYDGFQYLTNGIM
# Experimental: as §1
# DGK g = DGK g (Homo sapiens, UniProt P49619); test: Lipid kinase screening (ADP-Glo), DGK g; assay type: biochemical
# Experimental: as §1
# DGK z = DGK z (Homo sapiens, UniProt Q13574); test: Lipid kinase screening (ADP-Glo), DGK z; assay type: biochemical
# DGK z, sequence (Q13574 whole entry): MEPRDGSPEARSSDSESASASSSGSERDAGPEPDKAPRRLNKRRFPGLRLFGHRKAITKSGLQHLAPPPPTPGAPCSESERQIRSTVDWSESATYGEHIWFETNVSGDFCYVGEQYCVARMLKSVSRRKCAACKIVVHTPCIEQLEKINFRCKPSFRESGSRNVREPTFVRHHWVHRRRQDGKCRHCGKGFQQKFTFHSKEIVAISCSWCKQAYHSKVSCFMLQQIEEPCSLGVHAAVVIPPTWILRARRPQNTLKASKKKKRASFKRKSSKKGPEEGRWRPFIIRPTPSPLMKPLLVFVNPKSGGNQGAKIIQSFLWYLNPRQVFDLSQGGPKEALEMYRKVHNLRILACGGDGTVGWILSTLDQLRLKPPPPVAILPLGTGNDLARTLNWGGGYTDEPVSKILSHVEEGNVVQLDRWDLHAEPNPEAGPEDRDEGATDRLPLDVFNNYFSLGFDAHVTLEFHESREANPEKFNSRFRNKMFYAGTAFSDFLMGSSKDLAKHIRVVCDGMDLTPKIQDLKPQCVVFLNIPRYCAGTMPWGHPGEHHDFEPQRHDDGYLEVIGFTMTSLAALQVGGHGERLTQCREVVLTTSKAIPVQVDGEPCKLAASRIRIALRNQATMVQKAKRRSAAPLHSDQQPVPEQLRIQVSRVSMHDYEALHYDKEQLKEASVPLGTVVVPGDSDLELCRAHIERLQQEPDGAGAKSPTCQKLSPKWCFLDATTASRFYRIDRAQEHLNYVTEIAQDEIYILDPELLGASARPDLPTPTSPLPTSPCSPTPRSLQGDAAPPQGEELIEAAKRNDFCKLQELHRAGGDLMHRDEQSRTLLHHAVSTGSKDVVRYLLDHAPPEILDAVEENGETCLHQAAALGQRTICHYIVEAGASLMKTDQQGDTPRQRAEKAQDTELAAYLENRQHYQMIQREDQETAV
# Experimental: as §1
# PI4K2a = PI4K2a (Homo sapiens, UniProt Q9BTU6); test: Lipid kinase screening (ADP-Glo), PI4K2a; assay type: biochemical
# Experimental: as §1
# CHK b (CHKB) = CHK b (CHKB) (Homo sapiens, UniProt Q9Y259); test: Lipid kinase screening (ADP-Glo), CHKB; assay type: biochemical
# CHK b (CHKB), sequence (Q9Y259 whole entry): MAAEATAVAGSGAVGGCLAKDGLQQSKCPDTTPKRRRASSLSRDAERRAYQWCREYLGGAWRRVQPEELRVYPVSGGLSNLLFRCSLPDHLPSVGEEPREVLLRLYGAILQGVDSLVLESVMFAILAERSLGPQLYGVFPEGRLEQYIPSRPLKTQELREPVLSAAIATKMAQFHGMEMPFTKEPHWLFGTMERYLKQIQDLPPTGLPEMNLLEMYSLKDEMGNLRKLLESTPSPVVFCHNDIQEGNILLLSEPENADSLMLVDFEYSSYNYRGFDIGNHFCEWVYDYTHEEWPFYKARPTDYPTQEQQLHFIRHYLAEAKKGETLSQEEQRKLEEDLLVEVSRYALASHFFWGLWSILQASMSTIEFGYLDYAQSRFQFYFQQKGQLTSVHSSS
# Experimental: as §1
# Kinetic solubility assay = assay type: physicochemical; conditions: aqueous buffer, kinetic from dmso stock
# Experimental: (§2) The ADME study for ICL-CCIC-0019, CK14, CK145 (5), CK146 (4) and CK147 (8) was performed by Charles River Drug Discovery Services (Essex, UK).
# (§3) The predicted in vitro pharmacokinetic characteristics of compounds were evaluated by four ADME assays, namely kinetic solubility assay, metabolic stability assay using human liver microsome S9, permeability and efflux study using the Caco-2 cell line, and matrix stability assay using fasted state simulated gastric fluid (FaSSGF). All tested CHKA inhibitors were highly soluble (>150 μM) in 0.1 M PBS (2% DMSO) (Table 1). […] The in vivo clearance was calculated to predict the actual clearance in humans by scaling the clearance values, which takes into account liver weight, microsomes per liver and liver blood flow. […] In Caco-2 cell permeability assay, drug permeability was investigated and presented as apparent permeability coefficients (Papp) in A to B (A-B, apical to basolateral direction) and B to A (B-A, basolateral to apical direction).
# [3] = Human microsomal metabolic stability assay; assay type: in vitro ADME
# Experimental: as §2, §3
# [4] = Caco-2 permeability and efflux study; assay type: in vitro ADME, human; conditions: Caco-2
# Experimental: as §2, §3
# Caco-2 cell line = test: Caco-2 permeability and efflux study; assay type: in vitro ADME, human; conditions: Caco-2
# Experimental: as §2, §3
# [5] = Matrix stability assay in fasted state simulated gastric fluid (FaSSGF); assay type: in vitro ADME; conditions: simulated gi fluid
# Experimental: as §2, §3
# [6] = Conjugate stability test of CK147 in medium (HPLC); assay type: physicochemical; conditions: up to 72 h
# Experimental: To assess stability of CK147 in medium, 5 mL of medium containing 10% FCS and 1% L-glutamine was added sterilely to a six-well plate. Next, 1.7 μL of 300 mM CK147 in DMSO or 1.7 μL DMSO was added into wells and the plate was gently shaken for 5 s before being incubated at 37 °C in a humidified atmosphere containing 5% CO2. After 0, 2, 4, 6, 24, 48 and 72 h, 200 μL aliquots of medium from each well were transferred into a 1.5-mL tube containing 198.4 μL acetonitrile and 1.6 μL of 2.5 mg/mL ICL-CCIC-0019 as an internal standard (IS) […]. […] One hundred microliters of the solution were injected into the HPLC system described in Supplementary HPLC method D. Three repeats were performed for each sample.
# PI3K a, sequence (P42336 whole entry): as the sequence (P42336 whole entry E545K) above, with K545E counted along it
# PI3K a, sequence (P27986 whole entry partner): as the sequence (P27986 whole entry partner) above
smiles,measurement,setting,value
CN(C)c1cc[n+](CCCCCCCCCCCCCC[n+]2ccc(N3CCN(C(=O)CSC4CC(=O)N(CCC(=O)NCCCCCC(=O)NCCCCC(NC(=O)NC(CCC(=O)OC(C)(C)C)C(=O)OC(C)(C)C)C(=O)OC(C)(C)C)C4=O)CC3)cc2)cc1 (stereo not shown) [CK148],"cellular uptake, mean ± SD of two experiment groups",[1]; FCS positive and negative groups,42.5 ± 11.5 % μg^−1 protein
same,detection in cell lysates by HPLC (in words),[1]; both FCS groups,detected
CN(C)c1cc[n+](CCCCCCCCCCCCCC[n+]2ccc(N3CCN(C(=O)CSC4CC(=O)N(CCC(=O)NCCCCCC(=O)NCCCCC(NC(=O)NC(CCC(=O)O)C(=O)O)C(=O)O)C4=O)CC3)cc2)cc1 (stereo not shown) [CK147],inhibition at 10 µM,PI3K a,-2.6%
same,inhibition at 10 µM,PI3K b,-0.1%
same,inhibition at 10 µM,PI3K g,2.1%
same,inhibition at 10 µM,PI3Ka E545K + p85,22.8%
same,inhibition at 10 µM,PIP5K2A,-1.5%
same,inhibition at 10 µM,SPHK1,-1%
same,inhibition at 10 µM,SPHK2,-3.7%
same,inhibition at 10 µM,CHK a (CHKA),13.1%
same,inhibition at 10 µM,DGK b,-4.9%
same,inhibition at 10 µM,[2],0.5%
same,inhibition at 10 µM,DGK g,-6.5%
same,inhibition at 10 µM,DGK z,4.7%
same,inhibition at 10 µM,PI4K2a,10.4%
same,inhibition at 10 µM,CHK b (CHKB),3.2%
same,solubility kinetic,Kinetic solubility assay,186 µM
same,PCT_LBF % (percentage of compound removed compared to liver blood flow),[3],<45%
same,Predicted in vivo clearance,[3],<10 mL/min/kg
same,Human Microsomal Metabolic Stability: Remaining %,[3]; human,105%
same,microsomal CLint,"[3]; human, Human Microsomal Metabolic Stability: Clint",< 14 µL/min/mg
same,half-life,"[3]; human, liver microsomes, Human Microsomal Metabolic Stability: Half-life",> 1.67 h
same,Papp A→B,[4],< 0.1 ×10⁻⁶ cm/s
same,Papp B→A,[4],< 0.1 ×10⁻⁶ cm/s
same,Efflux ratio (Papp B-A/Papp A-B),Caco-2 cell line,too poor to permit calculation of the efflux ratio
same,Matrix Stability: Remaining %,[5],97%
same,half-life,[5]; pH 1.6,> 10 h
same,chemical decomposition in medium by HPLC/MS (in words),[6],Chemical decomposition was not detected
